Measurements published in patent US7413866B2, “Compositions and methods for detecting and treating diseases and conditions related to chemokine receptors” (ChemoCentryx, Inc., priority 2001, dated 2008).
Values belong to the molecule of their own block, whether it stands above or below them.

Tests used:
CXCR4 on MCF-7 cells [1] = biological target: T1, CXCR4 on MCF-7 cells (Homo sapiens, UniProt P25106); experiment: 125I I-TAC competition binding on MCF-7 cells
T1 construct: host or cells: MCF-7 (whole cells)
Source text: Binding Analysis. We employed our technique, DisplaceMax, to examine the global profile of chemokine ligand interaction with CXCR4 on MCF-7 and CEM-NKr cells. This technology employs expanded, efficiency-maximized radioligand binding using filtration protocols as described previously (Kledal T N, et al. Science 277:1656-1659 (1997); Dairaghi, et al. J Biol Chem 274:21569-74 (1999); Gosling, J. et al. J Immunol 164:2851-6 (2000)). […] Where indicated, anti-CXCR4 antibodies or isotype controls were included in the binding reactions. In these experiments cells were pre-incubated with the indicated concentration of antibody for 30 min at 4° C. prior to the addition of radiolabeled chemokine. Small molecules were included in some assays, where indicated. In these assays the compound was added to the plate to the indicated concentration followed by the addition of radiolabeled chemokine. All assays were then incubated for 3 hrs at 4° C. with gentle agitation. […] Scintillant (MicroScint 10, Packard) was added to the wells, and the filters were counted in a Packard Topcount scintillation counter. Data were analyzed and plotted using Prism (GraphPad Prism version 3.0a for Macintosh, GraphPad Software).

[2] = biological target: T2, CXCR4 on MCF-7 cells (Homo sapiens); experiment: 125I SDF-1α competition binding on MCF-7 cells; details: cold competitor array
T2 construct: host or cells: MCF-7 (whole cells)
Source text: (§1) Binding Analysis. We employed our technique, DisplaceMax, to examine the global profile of chemokine ligand interaction with CXCR4 on MCF-7 and CEM-NKr cells. This technology employs expanded, efficiency-maximized radioligand binding using filtration protocols as described previously (Kledal T N, et al. Science 277:1656-1659 (1997); Dairaghi, et al. J Biol Chem 274:21569-74 (1999); Gosling, J. et al. J Immunol 164:2851-6 (2000)). […] Where indicated, anti-CXCR4 antibodies or isotype controls were included in the binding reactions. In these experiments cells were pre-incubated with the indicated concentration of antibody for 30 min at 4° C. prior to the addition of radiolabeled chemokine. Small molecules were included in some assays, where indicated. In these assays the compound was added to the plate to the indicated concentration followed by the addition of radiolabeled chemokine. All assays were then incubated for 3 hrs at 4° C. with gentle agitation. Following incubation in all binding assays, reactions were aspirated onto PEI-treated GF/B glass filters (Packard) using a cell harvester (Packard) and washed twice (25 mM HEPES, 500 mM NaCl, 1 mM CaCl2, 5 mM MgCl2, adjusted to pH 7.1). Scintillant (MicroScint 10, Packard) was added to the wells, and the filters were counted in a Packard Topcount scintillation counter. Data were analyzed and plotted using Prism (GraphPad Prism version 3.0a for Macintosh, GraphPad Software).

CXCR4 on MCF-7 cells [3] = biological target: T1, CXCR4 on MCF-7 cells; experiment: 125I SDF-1α competition binding on MCF-7 cells
Source text: as §1

[4] = biological target: T3, CXCR4 on E13 fetal liver cells (Mus musculus); experiment: Radiolabeled human-SDF-1 binding competition on E13 fetal liver cells; details: wildtype mouse embryo E13 fetal liver cells
T3 construct: from tissue; host or cells: fetal liver cells of wildtype mouse embryos, E13

MDA MB-231 cells = experiment: Matrigel invasion assay; assay type: cell-based, human; details: breast tumor cells, 22 hrs
Experimental: Invasion Assay. Invasion assays were performed as per the manufacturer's instructions. Briefly, chemokines were diluted in HBSS (Life Technologies, Gaithersburg, Md.) supplemented with 0.1% bovine albumin (Sigma Chemical Company, St. Louis, Mo.) and added to the lower wells of BD BioCoat Matrigel Invasion chambers (BD Biosciences, Bedford, Mass.). MDA MB-231 cells were added to the matrigel coated inserts and the plates were incubated at 37° C. in a humidified incubator at a 5% CO2/air mixture for 22 hrs. Following this incubation, the inserts were transferred to a new plate and the media in the inserts was removed. Using a cotton swab the matrigel plug was removed from each well. The filters were then stained using Protocol Hema staining system (Biochemical Sciences, Inc., Swedesboro, N.J.). Invading cells were examined under a Nikon Elipse E800 (Nikon, Inc., Melville, N.Y.) microscope with a 40× lens. Cells were counted in 5 fields of view of each filter. Data represent the mean of 5 fields of view from each filter tested in triplicate.

[5] = tested on: tumor cells expressing the tumor correlated form of CXCR4; experiment: Serum starvation apoptosis of tumor cells; assay type: cell-based; details: serum starved overnight, compared to untreated controls
[6] = biological target: T4, CXCR4 on E17 fetal liver cells (Mus musculus, UniProt P70658); experiment: SDF-1 mediated calcium mobilization in E17 fetal liver cells; assay type: cell-based; details: wildtype mouse embryo E17 fetal liver cells
T4 construct: the E17 fetal liver cells also express CXCR4; from tissue; host or cells: fetal liver cells of wildtype mouse embryos, E17

CCR1 on monocytes [7] = biological target: CCR1 on monocytes (UniProt P32246); experiment: 125I MIP-1α competition binding on cells; monocytes; details: ligand
[8] = biological target: CCR1 on THP-1 cells (acute monocytic leukemia) (UniProt P32246); experiment: 125I MIP-1α competition binding on cells; THP-1 cells; details: ligand
[9] = biological target: CCR1 expressed on NSO transfectants (UniProt P32246); experiment: 125I MIP-1α competition binding on cells; NSO-CCR1 cells; details: ligand
[10] = biological target: CCR1 expressed on HEK293 transfectants (UniProt P32246); experiment: 125I MIP-1α competition binding on cells; HEK293-CCR1 cells; details: ligand
[11] = biological target: CXCR4 as expressed on breast tumor cells (MCF-7, MDA MB-231) (human) (UniProt P61073); experiment: homologous competition against ^125I I-TAC on MCF-7 cells, medium alone
[12] = biological target: CXCR4 as expressed on breast tumor cells (MCF-7, MDA MB-231) (human) (UniProt P61073); experiment: homologous competition against ^125I I-TAC on MCF-7 cells pre-incubated with excess MIG (~175 nM)
CCR1 on monocytes [13] = biological target: T5, CCR1 on monocytes (UniProt P32246 1-355); experiment: 125I MIP-1α competition binding on cells; monocytes
T5 chain: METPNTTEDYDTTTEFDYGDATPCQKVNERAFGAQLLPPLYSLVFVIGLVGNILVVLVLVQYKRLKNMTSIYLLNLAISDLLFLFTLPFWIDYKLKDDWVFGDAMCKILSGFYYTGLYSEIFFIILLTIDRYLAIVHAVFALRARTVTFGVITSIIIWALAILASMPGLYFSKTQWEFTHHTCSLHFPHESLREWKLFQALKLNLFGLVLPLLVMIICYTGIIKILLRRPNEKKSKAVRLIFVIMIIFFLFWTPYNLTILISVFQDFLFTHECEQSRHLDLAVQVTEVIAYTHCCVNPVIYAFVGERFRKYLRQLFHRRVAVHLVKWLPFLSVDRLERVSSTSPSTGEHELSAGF

[14] = biological target: T6, CCR1 on THP-1 cells (acute monocytic leukemia) (UniProt P32246 1-355); experiment: 125I MIP-1α competition binding on cells; THP-1 cells
T6 chain: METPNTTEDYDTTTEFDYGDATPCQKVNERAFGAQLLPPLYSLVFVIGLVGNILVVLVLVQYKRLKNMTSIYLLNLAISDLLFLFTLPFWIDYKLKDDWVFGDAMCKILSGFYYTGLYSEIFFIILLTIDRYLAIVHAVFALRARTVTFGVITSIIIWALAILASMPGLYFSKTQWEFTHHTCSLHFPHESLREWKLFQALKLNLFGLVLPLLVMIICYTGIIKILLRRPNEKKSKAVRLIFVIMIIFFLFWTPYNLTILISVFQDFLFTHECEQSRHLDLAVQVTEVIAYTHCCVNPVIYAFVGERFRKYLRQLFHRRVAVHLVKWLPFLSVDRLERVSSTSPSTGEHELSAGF

[15] = biological target: T7, CCR1 expressed on NSO transfectants (UniProt P32246 1-355); experiment: 125I MIP-1α competition binding on cells; NSO-CCR1 cells
T7 chain: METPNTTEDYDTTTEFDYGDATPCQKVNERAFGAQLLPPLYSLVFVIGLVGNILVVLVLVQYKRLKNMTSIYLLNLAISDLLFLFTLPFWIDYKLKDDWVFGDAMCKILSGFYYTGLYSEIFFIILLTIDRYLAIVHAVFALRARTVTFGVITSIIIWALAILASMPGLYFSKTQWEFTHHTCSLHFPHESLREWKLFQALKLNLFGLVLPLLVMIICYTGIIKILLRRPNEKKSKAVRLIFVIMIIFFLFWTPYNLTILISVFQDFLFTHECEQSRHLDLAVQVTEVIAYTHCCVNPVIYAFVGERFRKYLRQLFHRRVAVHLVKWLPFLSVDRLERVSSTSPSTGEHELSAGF

[16] = biological target: T8, CCR1 expressed on HEK293 transfectants (UniProt P32246 1-355); experiment: 125I MIP-1α competition binding on cells; HEK293-CCR1 cells
T8 chain: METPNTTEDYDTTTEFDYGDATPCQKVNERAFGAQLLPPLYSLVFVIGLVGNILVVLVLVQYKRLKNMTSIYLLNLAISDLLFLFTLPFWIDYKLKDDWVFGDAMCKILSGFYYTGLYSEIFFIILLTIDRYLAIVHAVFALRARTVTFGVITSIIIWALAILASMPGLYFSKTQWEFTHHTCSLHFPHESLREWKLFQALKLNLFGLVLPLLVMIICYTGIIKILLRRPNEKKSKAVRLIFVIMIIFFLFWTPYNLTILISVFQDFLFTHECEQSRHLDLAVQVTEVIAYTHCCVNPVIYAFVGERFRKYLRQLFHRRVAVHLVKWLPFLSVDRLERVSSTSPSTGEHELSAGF

T1 sequence (P25106 whole entry): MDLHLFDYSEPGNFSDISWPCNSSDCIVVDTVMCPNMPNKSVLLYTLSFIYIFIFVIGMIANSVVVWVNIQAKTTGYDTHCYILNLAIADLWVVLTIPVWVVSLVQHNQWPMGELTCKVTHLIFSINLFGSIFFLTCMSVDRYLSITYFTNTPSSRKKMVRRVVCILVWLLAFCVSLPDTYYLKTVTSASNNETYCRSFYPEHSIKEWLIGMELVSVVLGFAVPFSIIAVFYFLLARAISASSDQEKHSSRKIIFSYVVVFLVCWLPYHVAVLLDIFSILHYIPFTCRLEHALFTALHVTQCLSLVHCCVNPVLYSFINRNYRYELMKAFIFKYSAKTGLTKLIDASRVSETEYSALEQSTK
T3 sequence (P56485 whole entry): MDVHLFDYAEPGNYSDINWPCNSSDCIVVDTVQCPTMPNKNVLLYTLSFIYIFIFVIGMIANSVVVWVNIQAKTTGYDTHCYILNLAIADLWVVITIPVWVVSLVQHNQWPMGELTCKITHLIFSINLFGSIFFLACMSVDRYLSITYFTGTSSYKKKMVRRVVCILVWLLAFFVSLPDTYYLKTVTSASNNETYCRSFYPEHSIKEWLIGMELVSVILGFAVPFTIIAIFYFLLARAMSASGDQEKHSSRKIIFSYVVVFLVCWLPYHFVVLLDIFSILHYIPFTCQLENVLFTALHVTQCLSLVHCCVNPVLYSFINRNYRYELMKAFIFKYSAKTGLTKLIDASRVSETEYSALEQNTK
T4 sequence (P70658 whole entry): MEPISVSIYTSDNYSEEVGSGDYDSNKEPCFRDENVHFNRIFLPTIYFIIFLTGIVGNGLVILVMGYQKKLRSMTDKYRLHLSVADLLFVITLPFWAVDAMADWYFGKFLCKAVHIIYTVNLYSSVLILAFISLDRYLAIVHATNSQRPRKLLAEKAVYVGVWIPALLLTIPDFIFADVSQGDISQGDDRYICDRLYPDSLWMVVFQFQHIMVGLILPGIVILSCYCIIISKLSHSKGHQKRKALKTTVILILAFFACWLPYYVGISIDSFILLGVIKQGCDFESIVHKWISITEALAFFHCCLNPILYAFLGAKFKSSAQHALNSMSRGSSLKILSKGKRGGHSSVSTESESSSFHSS
T2 sequence (P25106 whole entry): as the sequence (P25106 whole entry) above

DisplaceMax displacement of 125I SDF-1α on MCF-7, affinity class [2]: high affinity | competition with / inhibition of 125I SDF-1α binding on MCF-7 (in words) (CXCR4 on MCF-7 cells [3]): does compete | competition with radiolabeled human-SDF-1 for binding to E13 fetal liver cells [4]: able to compete
Molecule: I-TAC: recombinant human chemokine, reported CXCR3 ligand

intracellular calcium mobilization in E17 fetal liver cells [6]: mobilizing intracellular calcium
Molecule: SDF-1: CXC chemokine, ligand for CXCR4, isoform not stated
cell invasion (MDA MB-231 cells): induced cell invasion | recovery from serum starvation induced apoptosis [5]: able to recover from the starvation

IC50 [11]: 1 nM | IC50 [12]: 1 nM
B1: human I-TAC (ligand, UniProt O14625 22-94, looked up)
chain: FPMFKRGRCLCIGPGVKAVKVADIEKASIMYPSNNCDKIEVIITLKENKGQRCLNPKSKQARLIIKKVERKNF
modifications: 125I label where used as the radioligand

The remaining lines, values behind:

Molecule: MIG: monokine induced by gamma interferon, CXCR3 ligand
inhibition of 125I I-TAC binding to MCF-7 by cold chemokine competitor (in words) (CXCR4 on MCF-7 cells [1]; MCF-7 cells): not inhibited | effect of pre-incubation with excess chemokine on 125I I-TAC binding to MCF-7 (CXCR4 on MCF-7 cells [1]; excess SDF-1β ~90 nM or excess MIG ~175 nM, 30 min at 4° C.): did not effect this binding profile

Molecule: CKβ8 (25-99) (from UniProt P55773 46-120)
IC50 (CCR1 on monocytes [7]): 0.25 nM | IC50 [8]: 0.27 nM | IC50 [9]: 0.02 nM | IC50 [10]: 1.34 nM

B2: MIP-1α (ligand)
chain: ADTPTACCFSYTSRQIPQNFIADYFETSSQCSKPGVIFLTKRSRQVCADPSEEWVQKYVSDLELSA
modifications: also: 125I label where used as radioligand
IC50 (CCR1 on monocytes [13]): 0.27 nM | IC50 [14]: 0.17 nM | IC50 [15]: 0.15 nM | IC50 [16]: 0.54 nM
